According to publication PMC6555848:

target: fluorescein-labeled phospho-Tyr peptide derived from the EPO receptor (FAM-GpYLVLDKW); assay: fluorescence polarisation; 10 nM FAM-labelled peptide, increasing STAT5B protein; 20 mM HEPES, 50 mM NaCl, 0.1% NP-40 substitute, 10% DMSO; 1 h at room temperature; 1:1 model; pH of the Kd values printed in the text not stated (pH 6.8, 7.25, 7.5 or 7.9 were used)

| Substance | Kd |
| --- | --- |
| STAT5B^N642A (from UniProt P51692 1-787) (natural protein) | 0.612 µM |
| STAT5B^N642D (from UniProt P51692 1-787) (natural protein) | 0.261 µM |
| STAT5B^N642Q (from UniProt P51692 1-787) (natural protein) | 0.229 µM |
